Results: patent US20190183976A1

Experiments:
CXCR4 (human) = CXCR4 (human) (UniProt P61073); experiment: cell-based or functional assay
CXCR4-VN (human) = CXCR4-VN (human) (UniProt P61073); experiment: BiFC, U-2 OS cells, CXCR4-VN & GPCRx-VC; score=(positive cells/total cells)x100
Sequence of CXCR4-VN (human) (P61073 whole entry): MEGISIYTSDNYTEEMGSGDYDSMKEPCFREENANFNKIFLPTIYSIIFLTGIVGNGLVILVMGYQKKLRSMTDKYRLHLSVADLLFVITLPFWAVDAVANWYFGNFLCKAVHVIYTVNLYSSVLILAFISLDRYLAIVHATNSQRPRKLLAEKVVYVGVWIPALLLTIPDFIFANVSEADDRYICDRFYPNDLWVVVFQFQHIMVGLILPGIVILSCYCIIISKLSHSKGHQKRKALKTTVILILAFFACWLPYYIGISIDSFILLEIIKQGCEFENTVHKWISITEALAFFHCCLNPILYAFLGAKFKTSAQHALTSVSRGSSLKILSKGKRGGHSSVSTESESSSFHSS

Sequence of CXCR4 (human) (P61073 whole entry): as above
Sequence of CCR5-VC, P51681 1-352 (receptor; other documents disagree on this pair) (P51681 whole entry): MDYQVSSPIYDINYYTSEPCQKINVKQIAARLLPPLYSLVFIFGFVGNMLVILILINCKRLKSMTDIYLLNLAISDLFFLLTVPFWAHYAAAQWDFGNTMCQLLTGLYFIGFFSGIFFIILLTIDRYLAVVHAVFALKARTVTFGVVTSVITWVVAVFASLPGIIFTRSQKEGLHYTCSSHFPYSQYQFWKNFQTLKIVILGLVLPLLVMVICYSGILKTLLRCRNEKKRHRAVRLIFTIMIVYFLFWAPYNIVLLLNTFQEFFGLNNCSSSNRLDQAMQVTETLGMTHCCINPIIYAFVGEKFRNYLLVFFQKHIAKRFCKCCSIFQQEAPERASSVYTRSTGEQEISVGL

12G5 (antibody) showed an IC50 of Ca2+ response; MDA-MB-231 expressing CXCR4+ADRB2; + carvedilol 10 µM; CXCL12 20 nM + salmeterol 1 µM (CXCR4 (human)) of 2.78 nM, an IC50 of Ca2+ response; MDA-MB-231 expressing CXCR4+ADRB2; no carvedilol; CXCL12 20 nM + salmeterol 1 µM (CXCR4 (human)) of 13.9 nM and an IC50 of Ca2+ response; MDA-MB-231 expressing CXCR4 alone; CXCL12 20 nM + salmeterol 1 µM (CXCR4 (human)) of 80.2 nM.

BKT140 (peptide) gave an IC50 of Ca2+ response; MDA-MB-231 with CXCR4+ADCYAP1R1; CXCL12 20 nM + PACAP-38 1 nM; + M65 1 µM (CXCR4 (human)) of 7.46 nM, an IC50 of Ca2+ response; MDA-MB-231 with CXCR4+ADCYAP1R1; CXCL12 20 nM + PACAP-38 1 nM; + PACAP-(6-38) 1 µM (CXCR4 (human)) of 19.6 nM and an IC50 of Ca2+ response; MDA-MB-231 with CXCR4+ADCYAP1R1; CXCL12 20 nM + PACAP-38 1 nM; no ADCYAP1R1 inhibitor (CXCR4 (human)) of 213 nM. The IC50 of Ca2+ response; MDA-MB-231 with CXCR4+C5AR1; CXCL12 20 nM + C5a 0.03 nM; + W54011 10 µM (CXCR4 (human)) was 9.72 nM, the IC50 of Ca2+ response; MDA-MB-231 with CXCR4+C5AR1; CXCL12 20 nM + C5a 0.03 nM; no C5AR1 inhibitor (CXCR4 (human)) was 118 nM and the IC50 of Ca2+ response; MDA-MB-231 with CXCR4+CALCR; CXCL12 20 nM + calcitonin 100 nM; + CT-(8-32) (salmon) 10 µM (CXCR4 (human)) was 15.6 nM. The IC50 of Ca2+ response; MDA-MB-231 with CXCR4+CALCR; CXCL12 20 nM + calcitonin 100 nM; no CALCR inhibitor (CXCR4 (human)) was 1040 nM.

With “CCR5-VC, P51681 1-352 (receptor; other documents disagree on this pair)” the BiFC score (CXCR4-VN (human)) was 44.

Substance TZ14011 (peptide) has an IC50 of Ca2+ response; MDA-MB-231 expressing CXCR4+ADRB2; + carvedilol 10 µM; CXCL12 20 nM + salmeterol 1 µM (CXCR4 (human)) of 0.02 nM, an IC50 of Ca2+ response; MDA-MB-231 expressing CXCR4+ADRB2; no carvedilol; CXCL12 20 nM + salmeterol 1 µM (CXCR4 (human)) of 17.8 nM and an IC50 of Ca2+ response; MDA-MB-231 expressing CXCR4 alone; CXCL12 20 nM + salmeterol 1 µM (CXCR4 (human)) of 23.9 nM. For the same substance, the fold decrease of the IC50 of Ca2+ response in CXCR4-ADRB2 cells on co-treatment with carvedilol (CXCR4 (human)) was 890 fold.
